Measured values from article PMC5615192 (mBio, 2017).

B1: unnamed (parent)
chain 1: EVQLQQSGAELVRPGALVKLSCKASGFNIKDYYMHWVKQRPEQGLEWIGWIDPENGKTIYDPRFRGKASITADTSSNTAYLQLSSLTSEDAAVYYCATSNYRYDRSFDYWGQGTTLTVSAKTTPPSVYPLAPGCGDTTGSSVTSGCLVKGYFPEPVTVTWNSGSLSSSVHTFPALLQSGLYTMSSSVTVPSSTWPSQTVTCSVAHPASSTTVDKKL
chain 2: DIQMTQSPSSLFASLGGKVTITCKASQDINKYIAWFQHKPGKGPRLLIHYTFTLQPGIPSRFSGSGSGRDYSFSISNLEPEDIATYYCLQYHNLYTFGGGTKLEIKRADAAPTVSIFPPSSEQLTSGGASVVCFLNNFYPKDINVKWKIDGSERQNGVLNSWTDQDSKDSTYSMSSTLTLTKDEYERHNSYTCEATHKTSTSPIVKSFNRNEC
chain 3: EATVYLPPVPVSKVVSTDEYVSRTSIYYYAGSSRLLAVGNPYFSIKSPNNNKKVLVPKVSGLQYRVFRVRLPDPNKFGFPDTSFYNPDTQRLVWACVGLEIGRGQPLGVGVSGHPYLNKFDDTETSNRYPAQPGSDNRECLSMDYKQTQLCLIGCKPPTGEHWGKGVACNNNAAATDCPPLELFNSIIEDGDMVDTGFGCMDFGTLQANKSDVPIDICNSTCKYPDYLKMASEPYGDSLFFFLRREQMFVRHFFNRAGKLGEAVPDDLYIKGSGNTAVIQSSAFFPTPSGSIVTSESQLFNKPYWLQRAQGHNNGICWGNQLFVTVVDTTRSTNMTLCTEVTKEGTYKNDNFKEYVRHVEEYDLQFVFQLCKITLTAEIMTYIHTMDSNILEDWQFGLTPPPSASLQDTYRFVTSQAITCQKTAPPKEKEDPLNKYTFWEVNLKEKFSADLDQFPLGRKFLLQSGLKAKPRLKRSAPTTRAPSTKRKKVKK
B2: unnamed (parent)
chain 1: B1 chain 3
chain 2: B1 chain 1
chain 3: B1 chain 2

Variants of: B1
Test: indirect ELISA
Settings: with partner chain of the complex shown

How did the EC50 turn out when chain 3 N137A was run?
Its EC50 is 0.011 mg/L.

Which EC50 does the source give for chain 3 N275A here?
Its EC50 is 0.0455 mg/L.

With chain 3 Q132A as the variant, how does the EC50 read?
The EC50 was 0.0152 mg/L.

Which EC50 does the source give for chain 3 S135A here?
The EC50 was 0.0132 mg/L.

For chain 3 D121A, which EC50 is on record?
The EC50 was 0.0784 mg/L.

Variants of: B2
Test: SPR (Biacore)
Settings: with partner chain of the complex shown; read off a plot

Which Kd does the source give for chain 1 Q132A here?
The Kd was 7.9 -log10, M.

chain 1 R128A was tested. Which Kd did it give?
Its Kd is 6 -log10, M.

chain 1 S135A was tested. Which Kd did it give?
Its Kd is 8.2 -log10, M.

chain 1 N275A was tested. Which Kd did it give?
Its Kd is 6.9 -log10, M.

chain 1 N137A was tested. Which Kd did it give?
Its Kd is 8.2 -log10, M.
